Data on one substance can be found in publication PMC13022675.

The test deals with GFP-tagged MR1A (MR1-GFP) expressed in clonal cell line D6 (D6ins and D6del mutants) (UniProt Q95460).
Chain of UniProt Q95460 (Q95460 23-341, stated change not applied): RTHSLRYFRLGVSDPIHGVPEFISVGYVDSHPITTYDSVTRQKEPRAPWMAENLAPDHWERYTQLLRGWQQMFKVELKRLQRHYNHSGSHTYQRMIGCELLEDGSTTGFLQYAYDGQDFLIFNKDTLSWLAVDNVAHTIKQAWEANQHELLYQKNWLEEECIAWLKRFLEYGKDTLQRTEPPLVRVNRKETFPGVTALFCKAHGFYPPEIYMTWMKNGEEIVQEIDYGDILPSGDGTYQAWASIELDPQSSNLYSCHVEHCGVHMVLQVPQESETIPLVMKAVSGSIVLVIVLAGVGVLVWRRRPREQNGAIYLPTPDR

For “β2-microglobulin (from UniProt P61769 21-119) (natural protein)”, the fully folded MR1 (antibody clone 26.5) remaining at the cell surface 6 h after brefeldin A, flow cytometry worked out at 20%.
